The results in this text go back to US20260015399A1 (Boehringer Ingelheim, published 2026).

Test [1] deals with T1, human NPY2 receptor (human, UniProt P49146 1-381).
T1 construct: whole, on cells; also called hNPY2-R; hNPY2R
T1 sequence (looked up): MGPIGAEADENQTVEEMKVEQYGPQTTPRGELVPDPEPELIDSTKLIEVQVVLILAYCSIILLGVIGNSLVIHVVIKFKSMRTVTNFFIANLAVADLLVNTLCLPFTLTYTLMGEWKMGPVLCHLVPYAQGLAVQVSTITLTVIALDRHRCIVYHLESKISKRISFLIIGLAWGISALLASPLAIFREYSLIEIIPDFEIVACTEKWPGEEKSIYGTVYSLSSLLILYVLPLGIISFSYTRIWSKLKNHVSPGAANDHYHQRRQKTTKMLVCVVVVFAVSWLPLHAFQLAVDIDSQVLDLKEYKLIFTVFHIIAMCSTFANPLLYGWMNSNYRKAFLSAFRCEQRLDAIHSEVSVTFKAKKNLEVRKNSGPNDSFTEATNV
The test is described as follows: RLB: displacement of 125I-PYY(1-36) from hNPY2R membranes.

For test [2], the target named is T1, human NPY2 receptor. The test can be described thus: cell-based or functional assay.
Test [3] concerns the target T2, human NPY5 receptor (human, UniProt Q15761 1-445).
T2 sequence (looked up): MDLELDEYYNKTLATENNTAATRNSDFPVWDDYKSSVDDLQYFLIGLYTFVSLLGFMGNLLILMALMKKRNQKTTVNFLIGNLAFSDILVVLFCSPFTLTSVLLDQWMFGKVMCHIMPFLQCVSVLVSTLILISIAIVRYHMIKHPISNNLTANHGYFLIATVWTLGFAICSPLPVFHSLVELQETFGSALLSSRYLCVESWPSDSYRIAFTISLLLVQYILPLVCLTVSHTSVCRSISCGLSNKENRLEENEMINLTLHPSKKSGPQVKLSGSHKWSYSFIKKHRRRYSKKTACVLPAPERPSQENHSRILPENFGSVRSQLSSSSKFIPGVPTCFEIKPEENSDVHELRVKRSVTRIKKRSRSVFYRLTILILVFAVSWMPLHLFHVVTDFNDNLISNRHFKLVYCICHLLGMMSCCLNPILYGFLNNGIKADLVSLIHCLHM
The test can be described thus: cell-based or functional assay.

*1 amine or outer side, *2 acyl side, *3 side chain or, on linkers, in order; H or OH if unused. Side-chain parts run from the residue outwards. The star is where a group is joined. C18 diacid = O=C(O)CCCCCCCCCCCCCCCCC(=O)*; γGlu = O=C(O)[C@H](CCC(=O)[*:2])N[*:1]; Isovaleryl = CC(C)CC(=O)*; Ahx = NCCCCCC(=O)O Where only a bound is given, the exact number is not on record here.

B1: Compound 12 (peptide)
peptide: Isovaleryl-APEK([Ahx-γGlu-C18 diacid])PEEDASPEELQQYYVSLRHYYHWLTRQRY-NH2
SMILES: CC(C)CC(=O)N[C@@H](C)C(=O)N1CCC[C@H]1C(=O)N[C@@H](CCC(=O)O)C(=O)N[C@@H](CCCCNC(=O)CCCCCNC(=O)CC[C@H](NC(=O)CCCCCCCCCCCCCCCCC(=O)O)C(=O)O)C(=O)N1CCC[C@H]1C(=O)N[C@@H](CCC(=O)O)C(=O)N[C@@H](CCC(=O)O)C(=O)N[C@@H](CC(=O)O)C(=O)N[C@@H](C)C(=O)N[C@@H](CO)C(=O)N1CCC[C@H]1C(=O)N[C@@H](CCC(=O)O)C(=O)N[C@@H](CCC(=O)O)C(=O)N[C@@H](CC(C)C)C(=O)N[C@@H](CCC(N)=O)C(=O)N[C@@H](CCC(N)=O)C(=O)N[C@@H](Cc1ccc(O)cc1)C(=O)N[C@@H](Cc1ccc(O)cc1)C(=O)N[C@H](C(=O)N[C@@H](CO)C(=O)N[C@@H](CC(C)C)C(=O)N[C@@H](CCCNC(=N)N)C(=O)N[C@@H](Cc1c[nH]cn1)C(=O)N[C@@H](Cc1ccc(O)cc1)C(=O)N[C@@H](Cc1ccc(O)cc1)C(=O)N[C@@H](Cc1c[nH]cn1)C(=O)N[C@@H](Cc1c[nH]c2ccccc12)C(=O)N[C@@H](CC(C)C)C(=O)N[C@H](C(=O)N[C@@H](CCCNC(=N)N)C(=O)N[C@@H](CCC(N)=O)C(=O)N[C@@H](CCCNC(=N)N)C(=O)N[C@@H](Cc1ccc(O)cc1)C(N)=O)[C@@H](C)O)C(C)C
Take B1: the Ki in test [1] came out at 4.16 nM. Also, the “EC50, HTRF cAMP Gi assay” value in test [2] was 0.25 nM; in test [3] it was more than 5000 nM.

B2: Compound 198 (peptide)
peptide: Isovaleryl-APAK([Ahx-γGlu-C18 diacid])PEADAEPEEIQRYYVSLRHYYNWLTRQRY-NH2
SMILES: CC[C@H](C)[C@H](NC(=O)[C@H](CCC(=O)O)NC(=O)[C@H](CCC(=O)O)NC(=O)[C@@H]1CCCN1C(=O)[C@H](CCC(=O)O)NC(=O)[C@H](C)NC(=O)[C@H](CC(=O)O)NC(=O)[C@H](C)NC(=O)[C@H](CCC(=O)O)NC(=O)[C@@H]1CCCN1C(=O)[C@H](CCCCNC(=O)CCCCCNC(=O)CC[C@H](NC(=O)CCCCCCCCCCCCCCCCC(=O)O)C(=O)O)NC(=O)[C@H](C)NC(=O)[C@@H]1CCCN1C(=O)[C@H](C)NC(=O)CC(C)C)C(=O)N[C@@H](CCC(N)=O)C(=O)N[C@@H](CCCNC(=N)N)C(=O)N[C@@H](Cc1ccc(O)cc1)C(=O)N[C@@H](Cc1ccc(O)cc1)C(=O)N[C@H](C(=O)N[C@@H](CO)C(=O)N[C@@H](CC(C)C)C(=O)N[C@@H](CCCNC(=N)N)C(=O)N[C@@H](Cc1c[nH]cn1)C(=O)N[C@@H](Cc1ccc(O)cc1)C(=O)N[C@@H](Cc1ccc(O)cc1)C(=O)N[C@@H](CC(N)=O)C(=O)N[C@@H](Cc1c[nH]c2ccccc12)C(=O)N[C@@H](CC(C)C)C(=O)N[C@H](C(=O)N[C@@H](CCCNC(=N)N)C(=O)N[C@@H](CCC(N)=O)C(=O)N[C@@H](CCCNC(=N)N)C(=O)N[C@@H](Cc1ccc(O)cc1)C(N)=O)[C@@H](C)O)C(C)C
In the case of B2, the inhibition constant Ki in test [1] was found to be 1.38 nM.

B3: Compound 199 (peptide)
peptide: Isovaleryl-APAK([Ahx-γGlu-C18 diacid])PEEEASPEELQRYYVSLRHYYNWLTRQRY-NH2
SMILES: CC(C)CC(=O)N[C@@H](C)C(=O)N1CCC[C@H]1C(=O)N[C@@H](C)C(=O)N[C@@H](CCCCNC(=O)CCCCCNC(=O)CC[C@H](NC(=O)CCCCCCCCCCCCCCCCC(=O)O)C(=O)O)C(=O)N1CCC[C@H]1C(=O)N[C@@H](CCC(=O)O)C(=O)N[C@@H](CCC(=O)O)C(=O)N[C@@H](CCC(=O)O)C(=O)N[C@@H](C)C(=O)N[C@@H](CO)C(=O)N1CCC[C@H]1C(=O)N[C@@H](CCC(=O)O)C(=O)N[C@@H](CCC(=O)O)C(=O)N[C@@H](CC(C)C)C(=O)N[C@@H](CCC(N)=O)C(=O)N[C@@H](CCCNC(=N)N)C(=O)N[C@@H](Cc1ccc(O)cc1)C(=O)N[C@@H](Cc1ccc(O)cc1)C(=O)N[C@H](C(=O)N[C@@H](CO)C(=O)N[C@@H](CC(C)C)C(=O)N[C@@H](CCCNC(=N)N)C(=O)N[C@@H](Cc1c[nH]cn1)C(=O)N[C@@H](Cc1ccc(O)cc1)C(=O)N[C@@H](Cc1ccc(O)cc1)C(=O)N[C@@H](CC(N)=O)C(=O)N[C@@H](Cc1c[nH]c2ccccc12)C(=O)N[C@@H](CC(C)C)C(=O)N[C@H](C(=O)N[C@@H](CCCNC(=N)N)C(=O)N[C@@H](CCC(N)=O)C(=O)N[C@@H](CCCNC(=N)N)C(=O)N[C@@H](Cc1ccc(O)cc1)C(N)=O)[C@@H](C)O)C(C)C
The molecule B3 came in with a Ki in test [1] of 2.87 nM.

B4: Compound 140 (peptide)
peptide: Isovaleryl-APEK([Ahx-γGlu-C18 diacid])PEADASPEEIQRYYVSLRHYYNWLTRQRY-NH2
Molecule B4 came in with a Ki in test [1] of 1.41 nM. For the same molecule, in test [3], the “EC50, HTRF cAMP Gi assay” value was more than 5000 nM.

B5: Compound 174 (peptide)
peptide: Isovaleryl-APEK([Ahx-γGlu-C18 diacid])PGADASPEKLQRYYVSLRHYYHKLTRQRY-NH2
SMILES: CC(C)CC(=O)N[C@@H](C)C(=O)N1CCC[C@H]1C(=O)N[C@@H](CCC(=O)O)C(=O)N[C@@H](CCCCNC(=O)CCCCCNC(=O)CC[C@H](NC(=O)CCCCCCCCCCCCCCCCC(=O)O)C(=O)O)C(=O)N1CCC[C@H]1C(=O)NCC(=O)N[C@@H](C)C(=O)N[C@@H](CC(=O)O)C(=O)N[C@@H](C)C(=O)N[C@@H](CO)C(=O)N1CCC[C@H]1C(=O)N[C@@H](CCC(=O)O)C(=O)N[C@@H](CCCCN)C(=O)N[C@@H](CC(C)C)C(=O)N[C@@H](CCC(N)=O)C(=O)N[C@@H](CCCNC(=N)N)C(=O)N[C@@H](Cc1ccc(O)cc1)C(=O)N[C@@H](Cc1ccc(O)cc1)C(=O)N[C@H](C(=O)N[C@@H](CO)C(=O)N[C@@H](CC(C)C)C(=O)N[C@@H](CCCNC(=N)N)C(=O)N[C@@H](Cc1c[nH]cn1)C(=O)N[C@@H](Cc1ccc(O)cc1)C(=O)N[C@@H](Cc1ccc(O)cc1)C(=O)N[C@@H](Cc1c[nH]cn1)C(=O)N[C@@H](CCCCN)C(=O)N[C@@H](CC(C)C)C(=O)N[C@H](C(=O)N[C@@H](CCCNC(=N)N)C(=O)N[C@@H](CCC(N)=O)C(=O)N[C@@H](CCCNC(=N)N)C(=O)N[C@@H](Cc1ccc(O)cc1)C(N)=O)[C@@H](C)O)C(C)C
B5 returned a Ki in test [1] of 0.21 nM.
